Assay results as given in paper PMC10786891, “Massively parallel profiling of RNA-targeting CRISPR-Cas13d”.
Residue numbers refer to the chain shown, from its start.

T1: EsCas13d, nuclease-dead (Eubacterium siraeum, UniProt B0MS50, R295A;H300A;R849A;H854A)
T1 sequence: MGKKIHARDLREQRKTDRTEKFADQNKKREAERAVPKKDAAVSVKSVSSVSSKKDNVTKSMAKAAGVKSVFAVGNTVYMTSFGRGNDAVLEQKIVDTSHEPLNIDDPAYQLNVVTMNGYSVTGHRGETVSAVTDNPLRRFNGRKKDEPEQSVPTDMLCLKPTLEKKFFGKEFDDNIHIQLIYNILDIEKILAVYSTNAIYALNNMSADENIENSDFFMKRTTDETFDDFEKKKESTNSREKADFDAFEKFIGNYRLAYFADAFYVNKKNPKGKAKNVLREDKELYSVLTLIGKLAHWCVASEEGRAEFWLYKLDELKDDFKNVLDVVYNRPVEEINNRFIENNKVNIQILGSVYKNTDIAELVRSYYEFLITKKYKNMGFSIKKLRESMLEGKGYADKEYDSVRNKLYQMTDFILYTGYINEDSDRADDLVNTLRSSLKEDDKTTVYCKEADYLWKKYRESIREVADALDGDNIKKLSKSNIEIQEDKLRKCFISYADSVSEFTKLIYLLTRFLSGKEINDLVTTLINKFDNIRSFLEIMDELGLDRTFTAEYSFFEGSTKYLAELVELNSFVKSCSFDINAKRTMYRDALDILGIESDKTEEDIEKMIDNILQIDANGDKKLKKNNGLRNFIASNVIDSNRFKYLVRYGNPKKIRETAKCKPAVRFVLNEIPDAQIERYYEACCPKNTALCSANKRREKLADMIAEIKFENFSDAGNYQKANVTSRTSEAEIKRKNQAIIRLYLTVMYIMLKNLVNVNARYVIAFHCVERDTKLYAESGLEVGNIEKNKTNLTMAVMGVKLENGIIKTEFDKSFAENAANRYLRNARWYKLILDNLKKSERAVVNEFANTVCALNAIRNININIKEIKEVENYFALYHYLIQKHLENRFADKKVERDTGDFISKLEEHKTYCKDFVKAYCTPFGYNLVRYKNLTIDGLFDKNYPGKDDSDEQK

B1: target 2 MT 5'PFS GUU 3'PFS ACA (mixed)
RNA 1: CACCCGUGCAAAAUUGCAGGGGUCUAAAACCUUCUCCAAAUUGUUUCAUCCU
RNA 2: GGGAAUGGAUCCACAUCUACGAAUUCGUUAGGAUGAAACAAUUUGGAGAAGACAAGAUCGGAAGAGCACACGU
B2: target 2 MT 5'PFS UUA 3'PFS CGA (mixed)
RNA 1: B1 RNA 1
RNA 2: B1 RNA 2 with G27U, U29A, A52C, C53G
B3: target 2 MT 5'PFS UUA 3'PFS CGG (mixed)
RNA 1: B1 RNA 1
RNA 2: B1 RNA 2 with G27U, U29A, A52C, C53G, A54G
B4: target 2 MT 5'PFS UAG 3'PFS UAC (mixed)
RNA 1: B1 RNA 1
RNA 2: B1 RNA 2 with G27U, U28A, U29G, A52U, C53A, A54C
B5: target 2 MT 5'PFS UCU 3'PFS UAC (mixed)
RNA 1: B1 RNA 1
RNA 2: B1 RNA 2 with G27U, U28C, A52U, C53A, A54C
B6: target 2 MT 5'PFS GUG 3'PFS CAC (mixed)
RNA 1: B1 RNA 1
RNA 2: B1 RNA 2 with U29G, A52C, C53A, A54C
B7: target 2 MT 5'PFS ACG 3'PFS UCU (mixed)
RNA 1: B1 RNA 1
RNA 2: B1 RNA 2 with G27A, U28C, U29G, A52U, A54U
B8: target 2 MT 5'PFS ACC 3'PFS UAG (mixed)
RNA 1: B1 RNA 1
RNA 2: B1 RNA 2 with G27A, U28C, U29C, A52U, C53A, A54G
B9: target 2 MT 5'PFS GUG 3'PFS CAG (mixed)
RNA 1: B1 RNA 1
RNA 2: B1 RNA 2 with U29G, A52C, C53A, A54G
B10: target 2 MT 5'PFS UAG 3'PFS UAG (mixed)
RNA 1: B1 RNA 1
RNA 2: B1 RNA 2 with G27U, U28A, U29G, A52U, C53A, A54G
B11: target 2 MT 5'PFS AGU 3'PFS ACG (mixed)
RNA 1: B1 RNA 1
RNA 2: B1 RNA 2 with G27A, U28G, A54G
B12: target 2 MT 5'PFS AGC 3'PFS ACU (mixed)
RNA 1: B1 RNA 1
RNA 2: B1 RNA 2 with G27A, U28G, U29C, A54U
B13: target 2 MT 5'PFS GUG 3'PFS ACU (mixed)
RNA 1: B1 RNA 1
RNA 2: B1 RNA 2 with U29G, A54U
B14: target 2 MT 5'PFS UAG 3'PFS UAU (mixed)
RNA 1: B1 RNA 1
RNA 2: B1 RNA 2 with G27U, U28A, U29G, A52U, C53A, A54U
B15: target 2 MT 5'PFS UUA 3'PFS AGG (mixed)
RNA 1: B1 RNA 1
RNA 2: B1 RNA 2 with G27U, U29A, C53G, A54G
B16: target 2 MT 5'PFS ACC 3'PFS UAC (mixed)
RNA 1: B1 RNA 1
RNA 2: B1 RNA 2 with G27A, U28C, U29C, A52U, C53A, A54C
B17: target 2 MT 5'PFS UCU 3'PFS UAA (mixed)
RNA 1: B1 RNA 1
RNA 2: B1 RNA 2 with G27U, U28C, A52U, C53A
B18: target 2 MT 5'PFS ACG 3'PFS UCC (mixed)
RNA 1: B1 RNA 1
RNA 2: B1 RNA 2 with G27A, U28C, U29G, A52U, A54C
B19: target 2 MT 5'PFS UAG 3'PFS UAA (mixed)
RNA 1: B1 RNA 1
RNA 2: B1 RNA 2 with G27U, U28A, U29G, A52U, C53A
B20: target 2 MT 5'PFS GUG 3'PFS ACG (mixed)
RNA 1: B1 RNA 1
RNA 2: B1 RNA 2 with U29G, A54G
B21: target 2 MT 5'PFS AGA 3'PFS CAU (mixed)
RNA 1: B1 RNA 1
RNA 2: B1 RNA 2 with G27A, U28G, U29A, A52C, C53A, A54U
B22: target 2 MT 5'PFS ACC 3'PFS UAU (mixed)
RNA 1: B1 RNA 1
RNA 2: B1 RNA 2 with G27A, U28C, U29C, A52U, C53A, A54U
B23: target 2 MT 5'PFS AGA 3'PFS AGC (mixed)
RNA 1: B1 RNA 1
RNA 2: B1 RNA 2 with G27A, U28G, U29A, C53G, A54C
B24: target 2 MT 5'PFS AGA 3'PFS AGA (mixed)
RNA 1: B1 RNA 1
RNA 2: B1 RNA 2 with G27A, U28G, U29A, C53G
B25: target 2 MT 5'PFS AGU 3'PFS ACU (mixed)
RNA 1: B1 RNA 1
RNA 2: B1 RNA 2 with G27A, U28G, A54U
B26: target 2 MT 5'PFS GUG 3'PFS ACC (mixed)
RNA 1: B1 RNA 1
RNA 2: B1 RNA 2 with U29G, A54C
B27: target 2 MT 5'PFS AAU 3'PFS UCA (mixed)
RNA 1: B1 RNA 1
RNA 2: B1 RNA 2 with G27A, U28A, A52U
B28: target 2 MT 5'PFS GUG 3'PFS ACA (mixed)
RNA 1: B1 RNA 1
RNA 2: B1 RNA 2 with U29G
B29: target 2 MT 5'PFS GGA 3'PFS UGA (mixed)
RNA 1: B1 RNA 1
RNA 2: B1 RNA 2 with U28G, U29A, A52U, C53G
B30: target 2 MT 5'PFS GUU 3'PFS ACC (mixed)
RNA 1: B1 RNA 1
RNA 2: B1 RNA 2 with A54C
B31: target 2 MT 5'PFS UUA 3'PFS AGC (mixed)
RNA 1: B1 RNA 1
RNA 2: B1 RNA 2 with G27U, U29A, C53G, A54C
B32: target 2 MT 5'PFS GUU 3'PFS ACG (mixed)
RNA 1: B1 RNA 1
RNA 2: B1 RNA 2 with A54G
B33: target 2 MT 5'PFS AGU 3'PFS CAU (mixed)
RNA 1: B1 RNA 1
RNA 2: B1 RNA 2 with G27A, U28G, A52C, C53A, A54U
B34: target 2 MT 5'PFS UUA 3'PFS AGA (mixed)
RNA 1: B1 RNA 1
RNA 2: B1 RNA 2 with G27U, U29A, C53G
B35: target 2 MT 5'PFS UUA 3'PFS CGC (mixed)
RNA 1: B1 RNA 1
RNA 2: B1 RNA 2 with G27U, U29A, A52C, C53G, A54C
B36: target 1 complement block 2-7 (mixed)
RNA 1: CACCCGUGCAAAAAUGCAGGGGUCUAAAACUGAGCGGAUAACCUCUCUAUGG
RNA 2: GGGAAUGGAUCCACAUCUACGAAUUCGUACCAUAGAGAGGUUAUGGCGAGACCGAGAUCGGAAGAGCACACGU
B37: target 1 insG 3' of 14,insG 3' of 9 (mixed)
RNA 1: B36 RNA 1
RNA 2: GGGAAUGGAUCCACAUCUACGAAUUCGUACCAUAGAGAGGGUUAGUCCGCUCACCGAGAUCGGAAGAGCACACGU
B38: target 1 insC 3' of 15,insC 3' of 3 (mixed)
RNA 1: B36 RNA 1
RNA 2: B37 RNA 2 with A38C, G39A, G45U, U46C, C48G, G49C, C50U, U51C

Target: T1, EsCas13d, nuclease-dead
Assay: crRNA (strand 1, pre-loaded); Mg2+; 40 mM Tris-HCl pH 7.5, 150 mM NaCl, 6 mM MgCl2, 1 mM DTT, 0.1% Tween-20, 0.2 mg/ml BSA; 25 C; 10 min per concentration, then washed
Details: tags: His6-TwinStrep-SUMO cleaved; N-terminal SNAP kept (SNAP-Surface 488); label: 3' end held by stalled T7 RNA polymerase

**Q.** How did the Kd turn out when B1 was run?
**A.** Its Kd is 17.5 ± 2.3 nM.

**Q.** B2 was tested. Which Kd did it give?
**A.** Its Kd is 24 ± 4 nM.

**Q.** For B3, which Kd is on record?
**A.** The Kd was 20.9 ± 2.1 nM.

**Q.** With B4 as the binder, how does the Kd read?
**A.** Its Kd is 2.65 ± 0.29 nM.

**Q.** How did the Kd turn out when B5 was run?
**A.** Its Kd is 12.8 ± 2.5 nM.

**Q.** How did the Kd turn out when B6 was run?
**A.** Its Kd is 10.6 ± 1 nM.

**Q.** With B7 as the binder, how does the Kd read?
**A.** Its Kd is 23 ± 7 nM.

**Q.** B8 was tested. Which Kd did it give?
**A.** The Kd was 4.6 ± 0.8 nM.

**Q.** With B9 as the binder, how does the Kd read?
**A.** The Kd was 10.5 ± 0.8 nM.

**Q.** How did the Kd turn out when B10 was run?
**A.** The Kd was 3.7 ± 0.4 nM.

**Q.** How did the Kd turn out when B11 was run?
**A.** The Kd was 13.8 ± 1.7 nM.

**Q.** B12 was tested. Which Kd did it give?
**A.** The Kd was 17 ± 6 nM.

**Q.** With B13 as the binder, how does the Kd read?
**A.** Its Kd is 12.9 ± 0.7 nM.

**Q.** How did the Kd turn out when B14 was run?
**A.** The Kd was 2.94 ± 0.19 nM.

**Q.** B15 was tested. Which Kd did it give?
**A.** Its Kd is 23.1 ± 3 nM.

**Q.** B16 was tested. Which Kd did it give?
**A.** The Kd was 12 ± 5 nM.

**Q.** Which Kd does the source give for B17 here?
**A.** The Kd was 12.8 ± 3.2 nM.

**Q.** For B18, which Kd is on record?
**A.** The Kd was 34 ± 15 nM.

**Q.** For B19, which Kd is on record?
**A.** The Kd was 2.8 ± 0.4 nM.

**Q.** With B20 as the binder, how does the Kd read?
**A.** The Kd was 13.1 ± 0.8 nM.

**Q.** B21 was tested. Which Kd did it give?
**A.** The Kd was 8 ± 1.9 nM.

**Q.** For B22, which Kd is on record?
**A.** The Kd was 6.5 ± 1.4 nM.

**Q.** Which Kd does the source give for B23 here?
**A.** Its Kd is 5.6 ± 1.2 nM.

**Q.** How did the Kd turn out when B24 was run?
**A.** The Kd was 4.9 ± 0.7 nM.

**Q.** B25 was tested. Which Kd did it give?
**A.** Its Kd is 22 ± 7 nM.

**Q.** With B26 as the binder, how does the Kd read?
**A.** The Kd was 20.8 ± 2.1 nM.

**Q.** How did the Kd turn out when B27 was run?
**A.** The Kd was 10.4 ± 3.5 nM.

**Q.** With B28 as the binder, how does the Kd read?
**A.** Its Kd is 10.3 ± 0.9 nM.

**Q.** For B29, which Kd is on record?
**A.** The Kd was 15.6 ± 3.1 nM.

**Q.** With B30 as the binder, how does the Kd read?
**A.** Its Kd is 18.1 ± 3 nM.

**Q.** With B31 as the binder, how does the Kd read?
**A.** The Kd was 19.3 ± 2.2 nM.

**Q.** With B32 as the binder, how does the Kd read?
**A.** The Kd was 17.5 ± 1.4 nM.

**Q.** Which Kd does the source give for B33 here?
**A.** Its Kd is 11.1 ± 2.7 nM.

**Q.** How did the Kd turn out when B34 was run?
**A.** Its Kd is 19.4 ± 3.2 nM.

**Q.** Which Kd does the source give for B35 here?
**A.** The Kd was 48 ± 10 nM.

**Q.** B36 was tested. Which Kd did it give?
**A.** Its Kd is 13.8 ± 0.7 nM.

**Q.** With B37 as the binder, how does the Kd read?
**A.** The Kd was 21.5 ± 1.5 nM.

**Q.** B38 was tested. Which Kd did it give?
**A.** The Kd was 17.3 ± 0.9 nM.
